Data taken from the supplement of paper PMC9732359.
± gives the uncertainty stated by the source.

Experiment: protein stability index of a GFP-peptide fusion (yeast GPS) (PSI 1-4); higher = more stable; sorted into four equal gates, so the index is relative within each strain
Conditions: ubr1∆
Method in brief: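 Plasmids in a pooled yeast library fused tiled 17-residue yeast protein peptides downstream of GFP and also expressed Cherry. Mid-log cultures grown without leucine were sorted into four equal gates by GFP/Cherry fluorescence ratio. Each gate's plasmids were PCR-amplified and Illumina-sequenced, and reads were matched to strains by barcodes. The protein stability index is derived by multiplying each gate's read frequency by its gate number and summing the results.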

Sequence	protein stability index
EFIPHSTEYMMQFAKSK [RPN6]	1.91 ± 0.14
EFMAGFNIISMTLKEMY [SMC4]	3.21 ± 0.089
EFYNEMHRPVHFLQFSE [PRP8]	2.33 ± 0.058
EGDELENKTKKDNDKNL [SRB4]	3.27 ± 0.077
EGEAKQKRNAHGYFLQD [ITC1]	3.32 ± 0.043
EGFAADDEPTTPAELVG [FAS1]	3.19 ± 0.076
EGGEAEFIFGTYNMIDA [ARP7]	2.83 ± 0.045
EGLCIVAGSKCWAVRAD [RRP45]	2.57 ± 0.07
EGMFANANRVFRTRFQD [SMC2]	2.31 ± 0.078
EGQIIQRSNISTAIKSL [CDC53]	1.79 ± 0.079
EGSWDRGIPRISTLFQR [PRP8]	3.06 ± 0.11
EGTRNRFSYSPPKEGNY [YMR129W/POM152]	3.13 ± 0.042
EGVEYSFLHVDDKLAYI [POP8]	2.04 ± 0.074
EHGLQITHTENYNDLIV [BRN1]	2.77 ± 0.089
EHGYQSRGFEVMYNGHT [RPB2]	2.61 ± 0.19
EHIKEGSEIAISSLGYR [SWI3]	2.95 ± 0.052
EIEMKNKLEKLNSLLTY [SMC4]	1.61 ± 0.04
EIEQPVTTFVFTGQGSQ [FAS1]	2.24 ± 0.066
EIFDVTSNGLKKNPNWL [FAS1]	3.37 ± 0.06
EIKDAETSCDNYHPMNI [SMC4]	2.98 ± 0.044
EIKDGRSLFLRNRGKIH [YMR153W/NUP53]	2.46 ± 0.066
EINAVFNELCDPESRTQ [POP1]	2.93 ± 0.064
EIQEELERFNKRADISK [SMC1]	3.23 ± 0.18
EIRPEMLGHYLGEFSIT [RPS15]	2.87 ± 0.17
EISKKDFVRKGGLQKGK [SIR3]	1.95 ± 0.092

Sequence	protein stability index
EITGTSCLTFFQALDSE [ITC1]	1.82 ± 0.057
EKAIPKDQRATTPYMTK [RPO26]	3.03 ± 0.044
EKAKSAGTQSSKFSKQQ [RPL24A]	3.12 ± 0.067
EKASRQQRKQKKNRDKK [RPS24A]	3.32 ± 0.083
EKDCSLRAIEKNDDNSC [YIL149C/MLP2]	1.86 ± 0.11
EKELQNEIKQLGSDSSD [SRB4]	2.85 ± 0.12
EKESVEKQHENAVLELG [SMC3]	3.42 ± 0.073
EKGKKVSGFKDEVLETV [RPS1B]	3.44 ± 0.084
EKIKSKKINRRNETSVD [YCG1]	3.33 ± 0.069
EKKDDNSSKPAFSFGAK [YJL041W/NSP1]	2.25 ± 0.037
EKPAPVRTHMRNMIIVP [RPS15]	1.14 ± 0.095
EKQTPNKKDKKKEEEEQ [RPN1]	3.16 ± 0.058
EKRATSPLLESDSIEKI [PUP2]	3.23 ± 0.068
EKVFTQGLNILEWLENP [FAS1]	3.17 ± 0.046
EKVNNNATLTPNDSNDE [SWI1]	3.16 ± 0.047
EKVTRYNRHKLQELIVN [RPO31]	1.44 ± 0.041
EKYEDEDEEKILDNTEN [DSN1]	3.21 ± 0.091
EKYGKQVYDLLKRFPKM [BRR2]	3.31 ± 0.14
ELAINLIRFDESITKAM [SMC2]	2.65 ± 0.071
ELDEHTTQIDLFRIFSM [BRR2]	1.22 ± 0.059
ELGEKKNEKLKFQETLL [ISW2]	2.88 ± 0.12
ELKDLETQVEVEKNEIG [NNF1]	3.33 ± 0.13
ELKINLPLTEHKSPNLS [SRB4]	2.98 ± 0.058
ELKIRSKTENVRRLEAQ [RPT6]	2.53 ± 0.095
ELKPVSLDNKTLDDLVT [YJL041W/NSP1]	3.19 ± 0.042

Sequence	protein stability index
ELLAYQFASPVRWIETQ [FAS2]	1.728 ± 0.016
ELLEERFQDSNPYVRTK [YCS4]	2.8 ± 0.096
ELLRLANEQLKLFNRIV [CSN12]	1.92 ± 0.07
ELLSKYKEQIIQGFYWA [SNU114]	2.17 ± 0.085
ELMKLDGTEYVLSSVRE [MED6]	3.15 ± 0.05
ELPKKLLNLPPFQVSSF [SRB8]	1.78 ± 0.041
ELRFPSPTPIQRITIPN [PRP28]	2.06 ± 0.058
ELSRIENEVENINATNT [YCS4]	3.14 ± 0.11
ELTAQGYDPALLNILSG [RPN2]	2.89 ± 0.079
ELVTISWVQPRIISGDQ [RPN9]	2.98 ± 0.1
EMGYLIQISKLHYTPIE [RPC82]	1.47 ± 0.055
EMKTQAAELQEKPLTPL [SNF6]	2.89 ± 0.087
EMMKMMQDPQMQQMAKQ [SRP54]	2.67 ± 0.038
ENAYDNPLADAEEALEP [PRE4]	3.13 ± 0.057
ENDHERGFFHLNEALLQ [CSN12]	3.06 ± 0.082
ENDLSFALMRYYDRKEE [RRI2]	2.98 ± 0.073
ENEMIKPMNKGQHKNNT [SWP82]	3.26 ± 0.049
ENFLKEVFQLRIFVKEI [GAL11]	1.52 ± 0.057
ENGLQLSDNAKTLHSQM [RPC34]	3.13 ± 0.053
ENGRRINELTLLVQKRF [RPS3]	3.32 ± 0.12
ENIAQMKPKAEKESDDG [SMC4]	3.74 ± 0.2
ENMWPFSYQEVEFKLPK [CDC53]	2.47 ± 0.035
ENNSDSNSNNNGNKDSS [SWI1]	3.04 ± 0.068
ENPTDNFIIWINSIDTT [GRR1]	2.74 ± 0.048
ENSEPPALESSPVTGDN [SNF2]	3.22 ± 0.062
